Assay results from patent US20240010735A1 (EISAI R AND D MANAGEMENT, published 2024).

Legend:
Test in all cases: ELISA: SEAP-His proteins (1 nM) captured on anti-6-His antibody, antibody A 10 µg/mL with human IgG 100 µg/mL, HRP anti-mouse IgG, OD450 as % of human EphA4-SEAP-His
[1] = target: T1, human EphA2 extracellular region-SEAP-His protein (human, UniProt P29317 24-537)
T1 construct: extracellular domain; also called Eph receptor extracellular region-SEAP-His protein; not shown: secretory alkaline phosphatase (SEAP); histidine tag
Procedure: (§1) Rabbit anti-6-His antibodies (Bethel Laboratories) were coated onto the wells of a 96-well plate (Nunc). After incubating at 4° C. overnight, the wells were blocked at room temperature for 1 hour by 1% Block Ace (DS Pharma Biomedical). After washing 3 times with 0.05% Tween 20/PBS (Thermo […]), each Eph receptor of human extracellular region-SEAP-His protein (final concentration 1 nM) was seeded into each well, and incubated at room temperature for 1 hour. After washing 3 times, human IgG solution (100 μg/mL, Mitsubishi Pharma Corporation) and antibody A (10 μg/mL) were supplemented to the wells, and incubated at room temperature for 1 hour. Horseradish peroxidase-labeled donkey anti-mouse IgG antibody (Jackson ImmunoResearch Laboratories) was added, and incubated at room, temperature for 1 hour. After washing 3 times, TMBZ (3,3′,5,5′-tetramethylbenzidine, Sigma) solution was added to the wells, and upon confirmation of modest coloring, an equal amount of quenching solution (1 N H₂SO₄, Wako Pure Chemicals) was added to the wells, and absorbance at 450 nm was read by a microplate reader (PerkinElmer).

[2] = target: T2, human EphA8 extracellular region-SEAP-His protein (human, UniProt P29322 28-542)
T2 construct: extracellular domain; also called Eph receptor extracellular region-SEAP-His protein; not shown: secretory alkaline phosphatase (SEAP); histidine tag
T2 sequence (looked up): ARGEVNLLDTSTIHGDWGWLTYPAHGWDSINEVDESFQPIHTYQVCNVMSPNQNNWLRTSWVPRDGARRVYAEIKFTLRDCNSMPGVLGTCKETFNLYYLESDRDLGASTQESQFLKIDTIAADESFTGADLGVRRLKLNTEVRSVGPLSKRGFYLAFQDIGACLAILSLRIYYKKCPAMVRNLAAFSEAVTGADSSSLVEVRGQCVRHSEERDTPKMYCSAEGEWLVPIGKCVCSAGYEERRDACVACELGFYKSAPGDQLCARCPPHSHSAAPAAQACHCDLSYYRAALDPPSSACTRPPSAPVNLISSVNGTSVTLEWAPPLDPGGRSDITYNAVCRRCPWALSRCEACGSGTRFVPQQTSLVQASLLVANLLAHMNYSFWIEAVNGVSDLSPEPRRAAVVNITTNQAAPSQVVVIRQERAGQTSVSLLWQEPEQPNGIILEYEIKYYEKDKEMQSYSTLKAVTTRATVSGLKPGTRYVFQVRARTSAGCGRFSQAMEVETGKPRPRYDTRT
Procedure: as §1

[3] = target: T3, human EphA10 extracellular region-SEAP-His protein (human, UniProt Q5JZY3 34-565)
T3 construct: extracellular domain; also called Eph receptor extracellular region-SEAP-His protein; not shown: secretory alkaline phosphatase (SEAP); histidine tag
T3 sequence (looked up): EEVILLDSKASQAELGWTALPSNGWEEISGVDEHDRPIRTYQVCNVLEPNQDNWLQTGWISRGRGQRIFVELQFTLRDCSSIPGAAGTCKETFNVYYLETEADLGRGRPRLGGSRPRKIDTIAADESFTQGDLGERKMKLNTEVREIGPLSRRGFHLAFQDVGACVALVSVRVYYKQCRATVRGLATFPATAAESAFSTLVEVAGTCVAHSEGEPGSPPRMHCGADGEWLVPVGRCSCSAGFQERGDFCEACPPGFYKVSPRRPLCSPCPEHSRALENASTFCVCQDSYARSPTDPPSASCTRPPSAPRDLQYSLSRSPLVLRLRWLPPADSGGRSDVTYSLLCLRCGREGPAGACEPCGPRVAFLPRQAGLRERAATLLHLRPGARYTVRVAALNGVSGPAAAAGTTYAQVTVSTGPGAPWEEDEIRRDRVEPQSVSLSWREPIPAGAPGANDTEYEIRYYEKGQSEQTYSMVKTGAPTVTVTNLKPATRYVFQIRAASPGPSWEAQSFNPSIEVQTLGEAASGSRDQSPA
Procedure: as §1

[4] = target: T4, human EphB3 extracellular region-SEAP-His protein (human, UniProt P54753 34-559)
T4 construct: extracellular domain; also called Eph receptor extracellular region-SEAP-His protein; not shown: secretory alkaline phosphatase (SEAP); histidine tag
T4 sequence (looked up): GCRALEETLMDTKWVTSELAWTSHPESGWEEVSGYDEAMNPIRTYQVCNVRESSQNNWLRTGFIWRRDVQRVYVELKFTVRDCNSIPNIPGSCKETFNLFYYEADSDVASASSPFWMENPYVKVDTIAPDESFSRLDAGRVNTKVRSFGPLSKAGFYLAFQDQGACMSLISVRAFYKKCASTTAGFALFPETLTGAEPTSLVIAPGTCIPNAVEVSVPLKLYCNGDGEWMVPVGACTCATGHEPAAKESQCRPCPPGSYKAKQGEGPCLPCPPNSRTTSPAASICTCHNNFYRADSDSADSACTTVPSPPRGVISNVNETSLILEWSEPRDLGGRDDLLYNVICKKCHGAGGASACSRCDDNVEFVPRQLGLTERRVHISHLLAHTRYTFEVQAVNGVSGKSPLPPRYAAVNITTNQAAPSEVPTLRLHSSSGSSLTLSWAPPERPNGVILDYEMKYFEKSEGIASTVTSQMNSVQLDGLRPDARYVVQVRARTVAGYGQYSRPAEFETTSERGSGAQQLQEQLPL
Procedure: as §1

Measured: binding result

T1 sequence (P29317 24-537): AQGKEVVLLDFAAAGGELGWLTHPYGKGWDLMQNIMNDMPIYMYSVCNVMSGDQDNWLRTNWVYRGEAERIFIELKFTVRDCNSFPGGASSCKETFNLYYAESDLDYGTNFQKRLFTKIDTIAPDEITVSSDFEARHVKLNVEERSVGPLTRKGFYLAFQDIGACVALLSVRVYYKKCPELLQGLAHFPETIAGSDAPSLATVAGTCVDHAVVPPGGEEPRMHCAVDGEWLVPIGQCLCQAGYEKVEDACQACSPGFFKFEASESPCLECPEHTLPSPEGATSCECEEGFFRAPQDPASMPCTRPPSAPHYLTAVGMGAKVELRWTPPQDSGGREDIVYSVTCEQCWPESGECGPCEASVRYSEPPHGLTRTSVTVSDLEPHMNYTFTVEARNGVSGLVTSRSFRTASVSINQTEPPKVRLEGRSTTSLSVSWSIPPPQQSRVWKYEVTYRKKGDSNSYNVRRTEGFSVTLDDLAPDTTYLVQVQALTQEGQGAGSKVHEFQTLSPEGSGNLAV

B1: mouse anti-EphA4 monoclonal antibody (antibody A) (antibody, mouse IgG1, kappa, V domains shown)
VH: QVQLKQSGPSLVQPSQSLSITCTVSGFSLTRYGVHWVRQSPGKGLEWLGVIWRGGSTDYNAAFMSRLSITKDNSKSQVFFKMNSLQADDTAIYYCAKESLFGVYYDYGYYSMDYWGQGTSVTVSS
VL: DIQMTQSPSSLSASLGERVSLTCRASQEISGYLSWLQQKPDGTIKRLIYAASTLDSGVPKRFSGSRSGSDYSLTISSLESEDFADYYCLQYASYPLTFGAGTKLELKR
notes: purified from hybridoma supernatant
no binding (tested: 10 µg/mL): all assays above
